Laboratory results published in the DeepSol protein solubility set.

Test: soluble on expression in E. coli; label from the status in PepcDB or PDB records

Sequence | soluble on expression in E. coli
MGHHHHHHSHMEEERRDDYKFLRIQDAFKALHLHVNLIGVIVELGFSNGSDCSCTLKIVDPWYSGSGLPVKFVARTIRDLPRVESIGDIILLSRVKIVLINRKITALCNETTSSSFALFNGKHSVDSIPYQSSPKFLMREQDKNFLSNLREWMITYKFEDGS | not soluble
MGHHHHHHSHMEKRKPTIQNIEVSDHTAELSLRVDADILDFQGHFSHFPLLPGVTQIDWALFYAVQYLNTPKVFKGMEVIKFQEPILPNADVCLSLSWDNEREKLTFKYTSKNGETLVTHSSGKMKLGESRE | soluble
MGHHHHHHSHMGSELIGRLAPRLGLAEPDMLRKAEEYLRLSRVKCVGLSARTTETSSAVMCLDLAASWMKCPLDRAYLIKLSGLNKETYQSCLKSFECLLGLNSNIGIRDLAVQFSCIEAVNMASKILKSYESSLPQTQQVDLDLSRPLFTSAALLSACKILKLKVDKNKMVATSGVKKAIFDRLCKQLEKIGQQVDREPGDVATPPRKRKKIVVEAPAKEMEKVEEMPHKPQKDEDLTQDYEEWKRKILENAASAQKATAE | not soluble
MGHHHHHHSHMGYKLQDLTDVQIMARLQEESLRQDYASTSASVSRHSSSVSLSSGKKGTCSDQEYDQYSLEDEEEFDHLPPPQPRLPRCSPFQRGIPHSQTFSSIRECRRSPSSQYFPSNNYQQQQYYSPQAQTPDQQPNRTNGDKLRRSMPNLARMPSTTAISSNISSPVTVRNSQSFDSSLHGAGNGISRIQSCIPSPGQLQHRVHSVGHFPVSIRQPLKATAYVSPTVQGSSNMPLSNGLQLYSNTGIPTPNKAAASGIMGRSALPRPSLAINGSNLPRSKIAQPVRSFLQPPKPLSSLSTLRDGNWRDGCY | not soluble
MGHHHHHHSHMHGSPVEVKIQSRSSPPTMPPLPPINPGGPRPVSFTPTALSNGINHSPPTLNGAPSPPQRFSNGPASSTSSALTNQQLPATCGARQLSKLKRFLTTLQQFGNDISPEIGEKVRTLVLALVNSTVTIEEFHCKLQEATNFPLRPFVIPFLKANLPLLQRELLHCARAAKQTPSQYLAQHEHLLLNTSIASPADSSELLMEVHGNGKRPSPESCIIHLKSMGVASRHEYFSGTLQMPAHPVRNSTLENLWVDCSRSLRSTVLPFP | not soluble
MGHHHHHHSHMHPDCGFLLNKDVGNIAKYDIRVKNLKSRLRGGKMRYQEEEARLASFRNWPFYVQGISPCVLSEAGFVFTGKQDTVQCFSCGGCLGNWEEGDDPWKEHAKWFPKCEFLRSKKSSEEITQYIQSYKGFVDITGEH | soluble
MGHHHHHHSHMITREEIANVLDQPVYDGDGNKIGDAKHVFFDDMTGRPEWVSVKTGMFGSTESFVPIRDAALVQDHLEVPYGKDQVKGAPSVDVDAGGHLSETEEHRLYDYYGINWDSVLSEAERTDDDRFAAGPGTAGAAGTAGAAGLAGTAGAAGAAGTAGGRTGREDAMRREGMRGDEGAMRREGMRGDEAMTRSEEQMHIGVERHESGRARLRKYVVTEEVQQTVPVTHEEVRVVREPITDANRDEALAGPEISEAEHEVTLHAERPVVETETVPVERVRMTTEELTENETVRGQVRKERIEAETESFTEGETKNARDDKRRGGK | soluble
MGHHHHHHSHMKIELSMQPWNPGYSSEGATAQETYTCPKMIEMEQAEAQLAELDLLASMFPGENELIVNDQLAVAELKDCIEKKTMEGRSSKVYFTINMNLDVSDEKMAMFSLACILPFKYPAVLPEITVRSVLLSRSQQTQLNTDLTAFLQKHCHGDVCILNATEWVREHASGYVSRDTSSSPTTGSTVQSVDLIFTRLWIYSHHIYNKCKRKNILEWAKELSLSGFSMPGKPGVVCVEGPQSACEEFWSRLRKLNWKRILIRHREDIPFDGTNDETERQRKFSIFEEKVFSVNGARGNHMDFGQLYQFLNTKGCGDVFQMFFGVEGQ | not soluble
MGHHHHHHSHMKRMAENELSRSVNEFLSKLQDDLKEAMNTMMCSRCQGKHRRFEMDREPKSARYCAECNRLHPAEEGDFWAESSMLGLKITYFALMDGKVYDITEWAGCQRVGISPDTHRVPYHISFGSRIPGTRGRQRATPDAPPADLQDFLSRIFQVPPGQMPMGTSLQLLSLPLEPLQPLSPTAQYPREKPNLSGGRK | not soluble
MGHHHHHHSHMKWASENGASVEGFEMVNFKEEGFGLRATRDIKAEELFLWVPRKLLMTVESAKNSVLGPLYSQDRILQAMGNIALAFHLLCERASPNSFWQPYIQTLPSEYDTPLYFEEDEVRYLQSTQAIHDVFSQYKNTARQYAYFYKVIQTHPHANKLPLKDSFTYEDYRWAVSSVMTRQNQIPTEDGSRVTLALIPLWDMCNHTNGLTPEDSFALAVASA | not soluble
MGHHHHHHSHMLACCAIYSPVRCAFPYTETERRFTCKRRIFRIILTLCGRENMKIRALLVAMSVATVLTGCQNMDSNGLLSSGAEAFQAYSLSDAQVKTLSDQACQEMDSKATIAPANSEYAKRLTTIANALGNNINGQPVNYKVYMAKDVNAFAMANGCIRVYSGLMDMMTDNEVEAVIGHEMGHVALGHVKKGMQVALGTNAVRVAAASAGGIVGSLSQSQLGNLGEKLVNSQFSQRQEAEADDYSYDLLRQRGISPAGLATSFEKLAKLEEGRQSSMFDDHPASAERAQHIRDRMSADGIK | not soluble
MGHHHHHHSHMLFEEAFVHLKPQVCLPLWISWAEWSEGAKSQEDTEAVFKKALLAVIGADSVTLKNKYLDWAYRSGGYKKARAVFKSLQESRPFSVDFFRKMIQFEKEQESCNMANIREYYERALREFGSADSDLWMDYMKEELNHPLGRPENCGQIYWRAMKMLQGESAEAFVAKHAMHQTGHL | not soluble
MGHHHHHHSHMLINARISVRSYPKYQRFSFFYALLFKRIDLILAQSKEDKKRLLNLGAKKVVDFLNIKRFSKPVITSFYPKNPSALNIVLASTHEGEEELGLKAFLELKKTFKNARLIVVPRHPERFKSVQDLLQNTLKTTPFSWECFSSKGFVECDILLVDSLGELNNFYQIADIVILGGSFVKMGGHNPLEPAFFNARLITGEYIFNQVALFELVKPYKIVPKEDLLDALLDYKNLGMARFLENGHDLNELLAFIKH | not soluble
MGHHHHHHSHMNGRADFREPNAEVPRPIPHIGPDYIPTEEERRVFAECNDESFWFRSVPLAATSMLITQGLISKGILSSHPKYGSIPKLILACIMGYFAGKLSYVKTCQEKFKKLENSPLGEALRSGQARRSSPPGHYYQKSKYDSSVSGQSSFVTSPAADNIEMLPHYEPIPFSSSMNESAPTGITDHIVQGRNFS | soluble
MGHHHHHHSHMNVVKASPQSALLLYISELIQEKNPMNAMNVVKPSARKYASYNMRDVIQERLPLYVPSAENPIHTNMASLPIREFTQERNLMSAMNVERPSPQSQYSMYIKERIQERGRMDAVIVRKPSPTYQTLSNIRKCTQEKWVESVKLKTPVMESHSSFLISELMQKKTLLVP | not soluble
MGHHHHHHSHMPGRSSSNSGSTGFISFSGVESALSSLKNFQACINSGMDTASSVALDLVESQTEVSSEYSMDKAMVEFATLDRQLNHYVKAVQSTINHVKEERPEKIPDLKLLVEKKLLALQSKNSDADFQNNEKFVQFKQQLKELKKQCGLQADREADGTEGVDEDIIVTQSQTNFTCPITKEEMKKPVKNKVCGHTYEEDAIVRMIESRQKRKKKAYCPQIGCSHTDIRKSDLIQDEALRRAIENHNKKRHRHSE | not soluble
MGHHHHHHSHMPPAAAGPLAGQPRKSSSSRRNAWGNLSYADLITKAIESSAEKRLTLSQIYEWMVKSVPYFKDKGDSNSSAGWKNSIRHNLSLHSKFIRVQNEGTGKSSWWMLNPEGGKSGKSPRRRAASMDNNSKFAKSRSRAAKKKA | soluble
MGHHHHHHSHMQGLLRFEDQDSARGDQNIAMFYPTSTQMVYRRGLQAIPLSGDLWIHYINFLKETLDPGDPETNNTIRGTFEHAVLAAGTDFRSDRLWEMYIDWENEQGNLREVTAIYDRILGIPTQLCSHHFQRFKEHVQNNLPRDLLTGEQFIQLRRELASVNGHSGDDGPPGDDLPSGIEDITDPAKLITEIENMRHRIIEIHQEMFNYNEHEVSKRWTFEEGIKRPYFHVKPLEKAQLKKLERILRI | soluble
